Assay results reported in US20160002331A1 (Pfizer, published 2016).
Values belong to the binder of their own block, whether it stands above or below them.

Key:
Human Notch2 NRR-Fc = target: T1, Human Notch2 NRR-Fc (human, UniProt Q04721 1425-1677, limits assumed); test: binding to recombinant NRR-Fc fusion protein (N/B represents non-binding)
T1 construct: domain: NRR region; Made in CHO-PACE cells; also called human Notch2 NRR-Fc fusion protein; not shown: human IgG1 Fc fragment
T1 sequence (looked up): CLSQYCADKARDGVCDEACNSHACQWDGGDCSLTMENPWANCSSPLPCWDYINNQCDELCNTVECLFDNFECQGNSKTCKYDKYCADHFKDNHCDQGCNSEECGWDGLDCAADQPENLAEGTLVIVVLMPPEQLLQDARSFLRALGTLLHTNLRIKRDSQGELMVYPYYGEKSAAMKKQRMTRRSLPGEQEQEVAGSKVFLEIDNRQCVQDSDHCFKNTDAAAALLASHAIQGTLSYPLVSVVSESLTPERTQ

Mouse Notch3 NRR-Fc = target: T2, Mouse Notch3 NRR-Fc (mouse, UniProt Q61982 1379-1643, limits assumed); test: as above
T2 construct: domain: NRR region; also called mouse Notch3 NRR-Fc fusion protein; not shown: Fc part
T2 sequence (looked up): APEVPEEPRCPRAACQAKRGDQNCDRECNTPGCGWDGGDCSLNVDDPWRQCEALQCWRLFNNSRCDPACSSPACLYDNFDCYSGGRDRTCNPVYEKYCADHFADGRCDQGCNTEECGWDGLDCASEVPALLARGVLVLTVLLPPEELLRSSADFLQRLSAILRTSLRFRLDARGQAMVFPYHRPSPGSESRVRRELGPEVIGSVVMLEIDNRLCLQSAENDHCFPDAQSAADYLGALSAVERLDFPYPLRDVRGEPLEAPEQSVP

Human Notch3 NRR-Fc = target: T3, Human Notch3 NRR-Fc (human, UniProt Q9UM47 1378-1643, limits assumed); test: as above
T3 construct: domain: NRR region; also called human Notch3 NRR-Fc fusion protein; not shown: human IgG1 Fc fragment
T3 sequence (looked up): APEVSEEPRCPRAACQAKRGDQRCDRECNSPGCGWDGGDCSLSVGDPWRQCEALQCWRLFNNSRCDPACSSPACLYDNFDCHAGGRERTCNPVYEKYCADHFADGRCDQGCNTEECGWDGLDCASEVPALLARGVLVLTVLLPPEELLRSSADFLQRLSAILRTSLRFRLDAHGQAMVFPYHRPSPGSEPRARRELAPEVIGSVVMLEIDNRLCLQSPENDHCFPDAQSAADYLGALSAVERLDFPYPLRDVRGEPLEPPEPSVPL

[1] = target: T4, full-length human Notch1 expressed on the cell surface (human, UniProt P46531 19-2555); test: cell-based or functional assay
T4 sequence (P46531 19-2555): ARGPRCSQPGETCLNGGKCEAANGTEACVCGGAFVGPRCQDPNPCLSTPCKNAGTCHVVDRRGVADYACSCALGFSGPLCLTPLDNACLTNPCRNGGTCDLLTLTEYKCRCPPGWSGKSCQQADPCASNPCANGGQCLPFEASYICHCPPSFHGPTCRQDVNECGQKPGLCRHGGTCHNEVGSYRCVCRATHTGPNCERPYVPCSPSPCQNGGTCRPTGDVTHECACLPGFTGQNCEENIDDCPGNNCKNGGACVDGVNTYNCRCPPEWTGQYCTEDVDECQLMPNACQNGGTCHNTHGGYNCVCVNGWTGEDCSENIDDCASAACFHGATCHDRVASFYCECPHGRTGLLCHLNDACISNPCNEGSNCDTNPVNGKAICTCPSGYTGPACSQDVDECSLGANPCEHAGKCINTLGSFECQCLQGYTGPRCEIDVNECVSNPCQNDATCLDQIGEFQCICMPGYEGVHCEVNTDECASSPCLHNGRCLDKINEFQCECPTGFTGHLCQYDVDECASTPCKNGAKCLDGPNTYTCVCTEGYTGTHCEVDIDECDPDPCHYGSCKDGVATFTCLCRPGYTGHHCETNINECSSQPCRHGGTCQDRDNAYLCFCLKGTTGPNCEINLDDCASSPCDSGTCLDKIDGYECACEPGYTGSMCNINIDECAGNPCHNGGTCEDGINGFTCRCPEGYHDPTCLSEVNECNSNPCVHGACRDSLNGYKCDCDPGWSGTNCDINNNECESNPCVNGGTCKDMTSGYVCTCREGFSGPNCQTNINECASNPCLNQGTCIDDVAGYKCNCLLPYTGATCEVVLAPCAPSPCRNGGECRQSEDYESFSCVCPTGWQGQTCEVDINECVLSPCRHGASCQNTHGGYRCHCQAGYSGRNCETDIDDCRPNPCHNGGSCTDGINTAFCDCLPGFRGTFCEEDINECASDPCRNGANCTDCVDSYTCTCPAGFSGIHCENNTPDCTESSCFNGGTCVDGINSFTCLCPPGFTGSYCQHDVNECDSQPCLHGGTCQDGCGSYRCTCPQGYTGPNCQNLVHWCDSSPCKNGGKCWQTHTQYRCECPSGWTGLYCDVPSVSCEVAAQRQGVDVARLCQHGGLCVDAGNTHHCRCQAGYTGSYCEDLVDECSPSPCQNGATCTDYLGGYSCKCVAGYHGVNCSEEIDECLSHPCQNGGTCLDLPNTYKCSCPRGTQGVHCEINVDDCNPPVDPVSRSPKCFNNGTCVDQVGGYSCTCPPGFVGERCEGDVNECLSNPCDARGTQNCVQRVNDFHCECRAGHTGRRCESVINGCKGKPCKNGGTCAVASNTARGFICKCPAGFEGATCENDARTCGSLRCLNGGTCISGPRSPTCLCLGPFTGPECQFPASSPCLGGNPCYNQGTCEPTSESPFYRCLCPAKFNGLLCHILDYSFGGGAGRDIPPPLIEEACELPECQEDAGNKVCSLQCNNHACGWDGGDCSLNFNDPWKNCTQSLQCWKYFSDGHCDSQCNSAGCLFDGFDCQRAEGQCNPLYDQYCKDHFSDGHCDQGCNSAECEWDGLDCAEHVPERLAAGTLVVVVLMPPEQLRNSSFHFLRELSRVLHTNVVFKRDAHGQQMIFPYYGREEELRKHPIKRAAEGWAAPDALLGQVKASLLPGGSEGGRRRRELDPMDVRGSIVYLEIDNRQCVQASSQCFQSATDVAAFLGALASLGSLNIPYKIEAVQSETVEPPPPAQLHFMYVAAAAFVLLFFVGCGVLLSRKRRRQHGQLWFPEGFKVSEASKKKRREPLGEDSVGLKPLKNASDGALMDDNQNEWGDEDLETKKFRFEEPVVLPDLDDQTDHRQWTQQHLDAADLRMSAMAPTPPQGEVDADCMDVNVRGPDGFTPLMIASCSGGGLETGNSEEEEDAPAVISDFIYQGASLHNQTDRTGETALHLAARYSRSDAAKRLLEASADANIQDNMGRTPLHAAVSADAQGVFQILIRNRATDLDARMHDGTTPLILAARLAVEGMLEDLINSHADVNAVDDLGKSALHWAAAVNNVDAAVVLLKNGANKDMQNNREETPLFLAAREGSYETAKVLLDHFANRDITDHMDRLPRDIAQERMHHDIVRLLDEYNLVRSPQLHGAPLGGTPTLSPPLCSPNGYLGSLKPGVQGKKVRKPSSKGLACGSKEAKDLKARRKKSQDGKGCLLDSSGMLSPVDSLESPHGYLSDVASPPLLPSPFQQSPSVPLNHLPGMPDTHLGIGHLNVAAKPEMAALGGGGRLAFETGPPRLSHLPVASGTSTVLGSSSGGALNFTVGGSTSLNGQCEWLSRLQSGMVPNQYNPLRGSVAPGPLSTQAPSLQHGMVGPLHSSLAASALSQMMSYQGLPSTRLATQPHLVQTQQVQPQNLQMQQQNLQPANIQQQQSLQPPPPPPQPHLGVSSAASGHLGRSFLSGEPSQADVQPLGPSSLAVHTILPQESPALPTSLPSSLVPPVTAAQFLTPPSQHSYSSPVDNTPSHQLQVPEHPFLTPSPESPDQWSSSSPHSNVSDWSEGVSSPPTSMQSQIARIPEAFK

[2] = target: T4, full-length human Notch1 expressed on …; test: cell-based or functional assay; remark: listed apart in the source
[3] = target: full-length mouse Notch1 expressed on the cell surface of U-2 OS cells (mouse, UniProt Q01705 19-2531); test: cell-based or functional assay
[4] = target: T4, full-length human Notch1 expressed on …; test: competition ELISA on U-2 OS cells expressing full-length human Notch1; competitor 0.8 nM biotinylated rat 438
Description: (§1) In a similar manner as described for recombinant protein or cell based ELISAs, 96 well cell culture plates were either coated with Notch1 NRR-Avi_His protein (hi-bound co-Star plates), or seeded with full length Notch1 expressing U-2 OS cells (cell culture plate, Co-star), respectively.
(§2) After incubation for 2 hours, the plates were washed, as described above, and HRP-conjugated streptavidin (Southern Biotech) diluted 1:5000 in blocking buffer was applied. Incubation with streptavidin was allowed for 30 min before the plates were washed again and developed with TMB solution for 10 minutes. Developing reaction was stopped by adding 0.18M H₂SO₄ and absorbance at 450 nm was measured. Data plotting and analyses were performed with Microsoft Excel and Graphpad-Prizm software.

[5] = target: T5, full-length human Notch3 expressed on U-2 OS cell surface (human, UniProt Q9UM47 40-2321); test: binding to Notch3 U-2 OS cells (N/B represents non-binding)
T5 construct: whole, on cells; also called Notch3 U2-OS cells; NotchS U-2 OS cells
T5 sequence (Q9UM47 40-2321): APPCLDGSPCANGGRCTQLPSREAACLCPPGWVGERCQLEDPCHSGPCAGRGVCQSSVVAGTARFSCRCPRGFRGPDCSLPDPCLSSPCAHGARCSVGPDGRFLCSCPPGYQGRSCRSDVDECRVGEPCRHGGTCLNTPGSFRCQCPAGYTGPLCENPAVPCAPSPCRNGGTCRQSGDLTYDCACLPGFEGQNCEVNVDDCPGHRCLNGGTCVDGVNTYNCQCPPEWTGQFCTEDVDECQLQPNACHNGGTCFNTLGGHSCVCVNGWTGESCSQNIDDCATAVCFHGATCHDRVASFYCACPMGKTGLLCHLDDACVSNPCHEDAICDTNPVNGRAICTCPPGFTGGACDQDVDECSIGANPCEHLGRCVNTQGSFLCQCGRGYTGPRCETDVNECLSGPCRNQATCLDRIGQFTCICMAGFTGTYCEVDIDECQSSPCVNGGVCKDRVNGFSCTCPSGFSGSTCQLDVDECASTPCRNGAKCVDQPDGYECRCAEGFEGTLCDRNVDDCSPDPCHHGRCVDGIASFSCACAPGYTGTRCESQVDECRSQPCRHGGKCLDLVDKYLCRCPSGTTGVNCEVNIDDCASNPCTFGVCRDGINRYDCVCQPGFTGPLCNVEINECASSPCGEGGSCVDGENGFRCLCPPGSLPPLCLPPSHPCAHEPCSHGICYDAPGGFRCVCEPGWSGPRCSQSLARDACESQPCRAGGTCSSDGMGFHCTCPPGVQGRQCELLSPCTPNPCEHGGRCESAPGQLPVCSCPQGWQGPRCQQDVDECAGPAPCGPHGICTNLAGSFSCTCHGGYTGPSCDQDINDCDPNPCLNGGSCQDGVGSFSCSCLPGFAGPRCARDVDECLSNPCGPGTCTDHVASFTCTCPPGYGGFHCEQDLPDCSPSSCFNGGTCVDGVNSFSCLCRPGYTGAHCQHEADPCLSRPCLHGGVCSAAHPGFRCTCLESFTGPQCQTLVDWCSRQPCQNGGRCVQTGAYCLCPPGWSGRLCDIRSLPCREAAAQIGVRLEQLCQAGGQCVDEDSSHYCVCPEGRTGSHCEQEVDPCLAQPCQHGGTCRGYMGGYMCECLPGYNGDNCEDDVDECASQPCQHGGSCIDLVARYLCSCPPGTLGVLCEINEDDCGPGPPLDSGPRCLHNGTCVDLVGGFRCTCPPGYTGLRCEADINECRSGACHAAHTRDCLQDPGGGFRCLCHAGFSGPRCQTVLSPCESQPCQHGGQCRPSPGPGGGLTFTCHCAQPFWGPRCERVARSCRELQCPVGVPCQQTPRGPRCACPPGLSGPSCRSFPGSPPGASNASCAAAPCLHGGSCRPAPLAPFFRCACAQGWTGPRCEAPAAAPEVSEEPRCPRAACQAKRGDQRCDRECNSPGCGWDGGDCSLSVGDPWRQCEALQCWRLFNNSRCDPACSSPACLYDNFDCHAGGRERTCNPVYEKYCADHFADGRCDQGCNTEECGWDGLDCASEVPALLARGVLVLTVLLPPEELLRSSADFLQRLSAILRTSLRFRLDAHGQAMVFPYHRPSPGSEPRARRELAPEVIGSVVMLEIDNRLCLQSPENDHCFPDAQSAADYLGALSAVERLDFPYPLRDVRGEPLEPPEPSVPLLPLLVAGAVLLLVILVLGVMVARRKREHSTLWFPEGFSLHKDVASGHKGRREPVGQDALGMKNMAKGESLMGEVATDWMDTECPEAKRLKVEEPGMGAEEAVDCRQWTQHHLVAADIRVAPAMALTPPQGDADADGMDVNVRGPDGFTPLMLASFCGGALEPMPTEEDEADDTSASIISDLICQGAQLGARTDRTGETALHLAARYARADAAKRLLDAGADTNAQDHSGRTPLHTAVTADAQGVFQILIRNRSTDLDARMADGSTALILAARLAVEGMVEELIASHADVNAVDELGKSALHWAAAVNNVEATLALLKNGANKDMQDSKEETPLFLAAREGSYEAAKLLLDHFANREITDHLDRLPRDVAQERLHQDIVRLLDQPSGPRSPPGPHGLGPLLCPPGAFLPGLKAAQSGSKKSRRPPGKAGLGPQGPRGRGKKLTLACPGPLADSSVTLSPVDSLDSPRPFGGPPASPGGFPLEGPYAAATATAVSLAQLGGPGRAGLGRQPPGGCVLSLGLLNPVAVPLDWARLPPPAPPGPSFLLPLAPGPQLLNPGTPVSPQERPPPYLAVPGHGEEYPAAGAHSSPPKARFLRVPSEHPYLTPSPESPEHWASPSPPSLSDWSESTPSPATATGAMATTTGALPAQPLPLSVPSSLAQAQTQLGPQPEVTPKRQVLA

[6] = target: T6, human Notch1 NRR_Avi_His recombinant protein (human, UniProt P46531 1434-1737); test: competition ELISA on coated human Notch1 NRR_Avi_His; competitor 0.8 nM biotinylated rat 438
T6 construct: Secreted from CHO-PACE cells; cleaved at S1 into an N-terminal ~26 kDa half (LNR-A, B, C, HD1) and a C-terminal ~12 kDa half (HD2 and tag) that stay associated non-covalently; written here as one chain; also called recombinant human Notch1 NRR; human Notch1 NRR immunogen
T6 sequence: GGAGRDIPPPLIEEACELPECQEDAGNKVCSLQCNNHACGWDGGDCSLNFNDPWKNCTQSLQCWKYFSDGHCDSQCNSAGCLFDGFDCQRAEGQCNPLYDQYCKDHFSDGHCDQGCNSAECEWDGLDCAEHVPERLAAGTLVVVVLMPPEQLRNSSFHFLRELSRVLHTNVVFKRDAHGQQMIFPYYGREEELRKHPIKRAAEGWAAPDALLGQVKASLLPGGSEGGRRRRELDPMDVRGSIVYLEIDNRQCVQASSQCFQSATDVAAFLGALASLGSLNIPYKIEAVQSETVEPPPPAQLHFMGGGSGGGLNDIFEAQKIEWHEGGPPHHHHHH
Description: as §1, §2

- binding result (Human Notch2 NRR-Fc): no binding
- binding result (Mouse Notch3 NRR-Fc): no binding
- binding result (Human Notch3 NRR-Fc): no binding
B1: humanized 351 VH1.0/VL1.1 (antibody, human IgG1, kappa, V domains shown)
VH: EVQLVESGGGLVQPGGSLRLSCAASGFTFSHYGMNWVRQAPGKGLEWVASISRSGSYIRYVDTVKGRFTISRDNAKNSLYLQMNSLRAEDTAVYYCAREGQFGDYFEYWGQGTLVTVSS
VL: DIQMTQSPSSLSASVGDRVTITCRASQKISTNLHWYQQKPGKAPKILIKYASQTISGVPSRFSGSGSGTDFTLTISSLQPEDFATYYCQQTNSWPLTFGGGTKVEIKR
notes: full chains (VH1.0)-hIgG1-3M and (VL1.1)-hkappa

- Firefly/Renilla Luminescence, human Notch1 reporter cells + 5 mM EDTA, 0.01 µg/mL antibody [1]: 338 Firefly/Renilla ratio
- Firefly/Renilla Luminescence, human Notch1 reporter cells + 5 mM EDTA, 0.1 µg/mL antibody [1]: 246 Firefly/Renilla ratio
- Firefly/Renilla Luminescence, human Notch1 reporter cells + 5 mM EDTA, 1 µg/mL antibody [1]: 117 Firefly/Renilla ratio
- Firefly/Renilla Luminescence, human Notch1 reporter cells + 5 mM EDTA, 10 µg/mL antibody [1]: 54.3 Firefly/Renilla ratio
- Firefly/Renilla Luminescence, human Notch1 reporter cells + 5 mM EDTA, 30 µg/mL antibody [1]: 46.9 Firefly/Renilla ratio
- IC50, human Notch1 reporter gene co-culture assay (DLL4-HEK293) [2]: 0.68 nM
- IC50, mouse Notch1 reporter gene co-culture assay (DLL4-HEK293) [3]: 0.71 nM
- EC50 [4]: 3.6 nM
- binding result [5]: no binding
- EC50 [6]: 1.5 nM
B2: rat 438-mIgG1 (antibody, V domains shown)
VH: AVQLVESGGGLVQPGRSLKLSCTASGFTFSSFAMAWVRQAPTKGLEWVASISYGGADTYYRDSVKGRFTISRDNAKSSLYLQMDSLRSEDTSTYYCAKDLPYYGYTPFVMDAWGQGTSVTVSS
VL: DIMLTQSPPTLSVTPGETISLSCRASQRINTDLHWYQQKPNESPRVLIKFASQTISGVPSRFSGSGSGTDFTLNINRVEPEDFSVYYCQQSNSWPYTFGAGTKLELK
notes: also called r438-mIgG; Rat438-mlgG
